Results on three molecules are retold here after article PMC4865633, “Data on dimer formation between importin α subtypes” (Data in Brief, 2016).

The labels stand for the following.
B2: GST-h-importin α3 (KPNA4, Qip1) (natural protein)
chain: MADNEKLDNQRLKNFKNKGRDLETMRRQRNEVVVELRKNKRDEHLLKRRNVPHEDICEDSDIDGDYRVQNTSLEAIVQNASSDNQGIQLSAVQAARKLLSSDRNPPIDDLIKSGILPILVHCLERDDNPSLQFEAAWALTNIASGTSEQTQAVVQSNAVPLFLRLLHSPHQNVCEQAVWALGNIIGDGPQCRDYVISLGVVKPLLSFISPSIPITFLRNVTWVMVNLCRHKDPPPPMETIQEILPALCVLIHHTDVNILVDTVWALSYLTDAGNEQIQMVIDSGIVPHLVPLLSHQEVKVQTAALRAVGNIVTGTDEQTQVVLNCDALSHFPALLTHPKEKINKEAVWFLSNITAGNQQQVQAVIDANLVPMIIHLLDKGDFGTQKEAAWAISNLTISGRKDQVAYLIQQNVIPPFCNLLTVKDAQVVQVVLDGLSNILKMAEDEAETIGNLIEECGGLEKIEQLQNHENEDIYKLAYEIIDQFFSSDDIDEDPSLVPEAIQGGTFGFNSSANVPTEGFQF
notes: human importin α3 (KPNA4, Qip1); plasmid pGEX2T-human-importin α3, obtained as described previously; also called GST-importin α3; IMPα3; source: E. coli Rosetta, purified on GSH beads, bacterially expressed and purified recombinant protein

Holding throughout (settings): both partners purified
The target in assay [1] is B2. Kind of assay: pull-down; GST-h-importin α3 (50 pmol) on GSH beads preincubated with SV40TNLS-GFP (50 pmol) at 4 °C for 1 h, washed, then 50 or 500 pmol FLAG-h-importin α8 or α1 added at 4 °C for 1 h; western blot (Fig. 1B). (In general: Immunoblotting shows a protein as a band on a membrane.)
Assay [2] deals with FLAG-h-importin α1 (KPNA2) (human, UniProt P52292 1-529). Kind of assay: pull-down; GST-h-importin α3 (50 pmol) on GSH beads preincubated with p53 (250 pmol) in TB with 0.1% Triton X-100 at 4 °C for 1 h, washed, then 50 or 500 pmol FLAG-h-importin α8 or α1 added at 4 °C for 1 h; western blot (Fig. 2B).
In assay [3] the target is B2. Described as above.
For assay [4], the target named is T1, GST-h-importin α8 (KPNA7) (human, UniProt A9QM74 1-516).
T1 construct: human importin α8 (KPNA7); also called GST-importin α8; IMPα8; source: E. coli Rosetta, purified on GSH beads, bacterially expressed and purified recombinant protein
T1 sequence (A9QM74 whole entry): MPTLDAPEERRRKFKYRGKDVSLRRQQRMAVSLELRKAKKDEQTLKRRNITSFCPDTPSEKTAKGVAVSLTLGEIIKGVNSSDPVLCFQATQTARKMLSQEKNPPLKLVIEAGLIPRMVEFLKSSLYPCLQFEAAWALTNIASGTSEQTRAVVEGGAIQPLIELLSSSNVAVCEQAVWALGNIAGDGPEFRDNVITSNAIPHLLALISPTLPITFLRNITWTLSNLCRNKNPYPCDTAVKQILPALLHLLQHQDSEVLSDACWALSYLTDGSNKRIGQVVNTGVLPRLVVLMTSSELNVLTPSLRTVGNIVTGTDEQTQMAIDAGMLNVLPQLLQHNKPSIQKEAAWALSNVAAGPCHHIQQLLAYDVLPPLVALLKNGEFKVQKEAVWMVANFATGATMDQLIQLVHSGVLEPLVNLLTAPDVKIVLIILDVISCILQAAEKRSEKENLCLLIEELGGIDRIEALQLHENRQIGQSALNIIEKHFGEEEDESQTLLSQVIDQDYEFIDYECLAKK
Nature of the assay: pull-down; GST fusions immobilized on GSH beads, 100 pmol FLAG-importin α in 200 μL transport buffer (20 mM HEPES pH 7.3, 110 mM potassium acetate, 2 mM magnesium acetate, 1 mM EGTA, 1 mM DTT) with 0.1% Triton X-100, 4 °C, 1 h; western blot with anti-FLAG and anti-GST (Fig. 1A).

Assay [5] has as its target GST-m-importin α1 (KPNA2) (mouse, UniProt P52293 1-529). The assay is described as above.

B1: SV40TNLS-GFP (domain or fragment)
chain: PPKKKRKVED
notes: also called SV40TNLS substrate; SV40 large T antigen NLS
Turning to B1, in assay [1], the binding result was “binds”. Turning to B2, the binding result in assay [2] is on record as “binds”.

B3: FLAG-h-importin α8 (KPNA7) (natural protein)
chain: not shown
notes: human importin α8 (KPNA7), amplified from pcDNA5/3xFLAG-h-importin α8 with primers from the start codon to the stop codon, in pGEX6P3; Cleavage of GST is told in general in the methods; also called FLAG-importin α8; IMPα8; source: E. coli Rosetta, GST fusion purified on GSH beads, bacterially expressed and purified recombinant protein; not shown: FLAG, N-terminal, kept
Regarding B3, the binding result in assay [3], in assay [4] and in assay [5] was “binds” in each case.
